Measurements published in patent publication US6790630 (NEW ENGLAND BIOLABS, dated 2004).

T1: Erythrina cristagalli lectin (ECL), biotinylated (Erythrina cristagalli, UniProt P83410 1-239)
T1 construct: Lectin
T1 sequence: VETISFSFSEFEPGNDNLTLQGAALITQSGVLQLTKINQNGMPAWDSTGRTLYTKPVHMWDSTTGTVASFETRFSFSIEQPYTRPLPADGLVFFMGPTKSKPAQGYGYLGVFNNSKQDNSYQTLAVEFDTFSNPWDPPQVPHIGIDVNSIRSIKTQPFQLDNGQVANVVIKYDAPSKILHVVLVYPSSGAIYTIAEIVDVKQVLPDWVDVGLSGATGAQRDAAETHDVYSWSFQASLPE

T2: Peanut agglutinin (PNA), biotinylated (UniProt P02872 24-259)
T2 construct: Lectin
T2 sequence: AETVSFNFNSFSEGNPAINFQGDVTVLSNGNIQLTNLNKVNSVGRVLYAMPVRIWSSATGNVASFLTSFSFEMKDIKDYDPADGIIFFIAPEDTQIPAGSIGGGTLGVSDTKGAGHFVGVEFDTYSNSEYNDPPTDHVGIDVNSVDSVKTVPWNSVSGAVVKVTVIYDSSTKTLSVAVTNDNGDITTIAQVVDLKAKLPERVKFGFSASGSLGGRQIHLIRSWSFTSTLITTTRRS

B1: Artpocarpus integrifolia (jacalin), biotinylated (other)
chain 1: GKAFDDGAFTGIREINLSYNKETAIGDFQVVYDLNGSPYVGQNHKSFITGFTPVKISLDFPSEYIMEVSGYTGNVSGYVVVRSLTFKTNKKTYGPYGVTSGTPFNLPIENGLIVGFKGSIGYWLDYFSMYLSL
chain 2: NEQSGKSQTVIVGSWGAKVS
B2: DiT33, native 31-33 kDa glycoprotein of Dirofilaria immitis (other)
chain: SVINRHNKRFAGFSVAGIGGTAGCVVVDNKLFANSFYLRDLTTEEQRELAQYVEDSNQYKEEVKTSLEERRKGWQLARHGEKDAKVLSSLAEKKFPKPPKKPSFCSAGDTTQYYFDGCMVQNNKIYVGRMYVRDLTSDEINQLKTFDAKMTAYQKYLSSSIQQQVDSLFGDKSNLFNLFTDTRHETSSQPSDATTISTTTQAPVEPPETPHFCIAIY
notes: also called doublet of 31 and 33 kDa; D. immitis homolog of Ov33
B3: Wheat germ agglutinin (WGA), biotinylated (other)
chain: QRCGEQGSNMECPNNLCCSQYGYCGMGGDYCGKGCQNGACWTSKRCGSQAGGATCTNNQCCSQYGYCGFGAEYCGAGCQGGPCRADIKCGSQAGGKLCPNNLCCSQWGFCGLGSEFCGGGCQSGACSTDKPCGKDAGGRVCTNNYCCSKWGSCGIGPGYCGAGCQSGGCDG
notes: Lectin
B4: Ov33, native 31-33 kDa antigen of Onchocerca volvulus adult worms (other)
chain: GVVKRYNKRFAGFNVAGIGGNAGCVVVDNKLFANSFFLRELTTEEQRELAQYIEDSNRYKEEVKESLEERRKGWQLARDGKEDSKVLSALAEKKLPKPPKKPSFCSAGDTTQYYFDGCMVQNDKIYVGRAYVRDLTPDEVTQLKTFDAKMTAYQKYLSSTIQKQVDSLFGEKSNLFNLFADTRTEATSQASDDATAGATTTQAPVEAPEPPHFCVAIY

Tests used:
[1] = target: B2; experiment: lectin blot, biotinylated lectin 20 µg/ml
[2] = target: B4; experiment: lectin blot, biotinylated lectin 20 µg/ml
[3] = target: T3, Concanavilin A (Con-A), biotinylated (UniProt P02866 30-281); experiment: lectin blot of affinity purified antigen
T3 construct: Lectin

[4] = target: T1, Erythrina cristagalli lectin (ECL), …; experiment: lectin blot of affinity purified antigen
[5] = target: T2, Peanut agglutinin (PNA), biotinylated; experiment: lectin blot of affinity purified antigen
[6] = target: T4, Phaseolus vulgaris erthroagglutinin (PHA-E), biotinylated (Phaseolus vulgaris, UniProt P05088 22-275); experiment: lectin blot of affinity purified antigen
T4 construct: Lectin

[7] = target: T5, Soybean agglutinin (SBA), biotinylated (UniProt P05046 33-285); experiment: lectin blot of affinity purified antigen
T5 construct: Lectin
T5 sequence (P05046 33-285 limits assumed): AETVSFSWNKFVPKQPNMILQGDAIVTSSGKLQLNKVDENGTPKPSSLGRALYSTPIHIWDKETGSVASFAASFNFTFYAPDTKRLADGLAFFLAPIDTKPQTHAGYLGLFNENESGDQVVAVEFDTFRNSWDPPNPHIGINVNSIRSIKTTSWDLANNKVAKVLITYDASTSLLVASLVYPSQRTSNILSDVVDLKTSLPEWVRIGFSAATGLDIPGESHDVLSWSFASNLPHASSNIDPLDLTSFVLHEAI

[8] = target: B2; experiment: lectin blot of affinity purified antigen
[9] = target: B4; experiment: lectin blot of affinity purified antigen

Binder | binding result [1] | binding result [2] | binding result [3] | binding result [4] | binding result [5] | binding result [6] | binding result [7] | binding result [8] | binding result [9]
B1 | binds | binds | – | – | – | – | – | – | –
B2 | – | – | no binding (tested: 20 µg/ml) | no binding (tested: 20 µg/ml) | no binding (tested: 20 µg/ml) | no binding (tested: 20 µg/ml) | no binding (tested: 20 µg/ml) | – | –
B3 | – | – | – | – | – | – | – | no binding (tested: 20 µg/ml) | no binding (tested: 20 µg/ml)
B4 | – | – | no binding (tested: 20 µg/ml) | no binding (tested: 20 µg/ml) | no binding (tested: 20 µg/ml) | no binding (tested: 20 µg/ml) | no binding (tested: 20 µg/ml) | – | –
